From patent publication US20160361360A1

Target: Trop-2 (on Trop-2-expressing HCC1806 cells) (human) (UniProt P09758)
Assay: cell-based or functional assay

UniProt P09758, sequence (P09758 27-323): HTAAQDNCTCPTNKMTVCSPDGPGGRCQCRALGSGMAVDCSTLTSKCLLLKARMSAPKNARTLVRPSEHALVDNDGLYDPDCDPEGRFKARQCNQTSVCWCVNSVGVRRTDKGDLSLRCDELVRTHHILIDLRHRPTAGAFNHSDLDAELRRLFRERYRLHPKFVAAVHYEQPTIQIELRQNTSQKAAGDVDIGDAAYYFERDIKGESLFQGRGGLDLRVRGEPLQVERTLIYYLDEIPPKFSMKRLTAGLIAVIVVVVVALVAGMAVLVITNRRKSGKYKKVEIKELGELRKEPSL

## hRS7-CAR, a human Trop-2-targeting CAR (SPCD8α-VKhRS7-(GGGGS)3-VHhRS7-HingeCD8α-TMCD8α-ICD4-1BB-ICDCD3ζ) (receptor)
  Cytotoxicity by flow cytometry (percent of HCC1806 cells killed, E:T 3:1, 3 h): 42%
  Specific lysis of HCC1806 cells relative to mock-transfected NK-92MI (flow cytometry, E:T 3:1, 3 h): 2 fold
